Test results: publication PMC12802153, “Cryo-EM reveals the structural heterogeneity and conformational flexibility of multidrug efflux pumps MdtB and MdtF” (mBio, 2025)

Molecular target: the molecule itself
Test: SEC; Superdex 200 Increase 10/300 GL, 25 mM HEPES pH 7.5, 100 mM NaCl, 0.03% DDM; elution volume compared with the trimeric molecular weight

B1: MdtB, multidrug efflux HAE-RND transporter from Escherichia coli (natural protein)
chain: MQVLPPSSTGGPSRLFIMRPVATTLLMVAILLAGIIGYRALPVSALPEVDYPTIQVVTLYPGASPDVMTSAVTAPLERQFGQMSGLKQMSSQSSGGASVITLQFQLTLPLDVAEQEVQAAINAATNLLPSDLPNPPVYSKVNPADPPIMTLAVTSTAMPMTQVEDMVETRVAQKISQISGVGLVTLSGGQRPAVRVKLNAQAIAALGLTSETVRTAITGANVNSAKGSLDGPSRAVTLSANDQMQSAEEYRQLIIAYQNGAPIRLGDVATVEQGAENSWLGAWANKEQAIVMNVQRQPGANIISTADSIRQMLPQLTESLPKSVKVTVLSDRTTNIRASVDDTQFELMMAIALVVMIIYLFLRNIPATIIPGVAVPLSLIGTFAVMVFLDFSINNLTLMALTIATGFVVDDAIVVIENISRYIEKGEKPLAAALKGAGEIGFTIISLTFSLIAVLIPLLFMGDIVGRLFREFAITLAVAILISAVVSLTLTPMMCARMLSQESLRKQNRFSRASEKMFDRIIAAYGRGLAKVLNHPWLTLSVALSTLLLSVLLWVFIPKGFFPVQDNGIIQGTLQAPQSSSFANMAQRQRQVADVILQDPAVQSLTSFVGVDGTNPSLNSARLQINLKPLDERDDRVQKVIARLQTAVDKVPGVDLFLQPTQDLTIDTQVSRTQYQFTLQATSLDALSTWVPQLMEKLQQLPQLSDVSSDWQDKGLVAYVNVDRDSASRLGISMADVDNALYNAFGQRLISTIYTQANQYRVVLEHNTENTPGLAALDTIRLTSSDGGVVPLSSIAKIEQRFAPLSINHLDQFPVTTISFNVPDNYSLGDAVQAIMDTEKTLNLPVDITTQFQGSTLAFQSALGSTVWLIVAAVVAMYIVLGILYESFIHPITILSTLPTAGVGALLALLIAGSELDVIAIIGIILLIGIVKKNAIMMIDFALAAEREQGMSPREAIYQACLLRFRPILMTTLAALLGALPLMLSTGVGAELRRPLGIGMVGGLIVSQVLTLFTTPVIYLLFDRLALWTKSRFARHEEEA
notes: MdtB, RND inner membrane transporter of the MdtABC system, Escherichia coli; gene PCR amplified from E. coli genomic DNA, cloned into pET21a(+) between NdeI and XhoI; wild type; the whole gene appears to have been cloned. ~110 kDa band on SDS-PAGE; also called homotrimeric MdtB; source: E. coli BL21ΔacrB acrD mdtABC (NKE1317), purified (2% DDM extraction, Ni-NTA, SEC in 0.03% DDM); for cryo-EM …
stoichiometry N: 3

B2: MdtF, multidrug efflux HAE-RND transporter from Escherichia coli (natural protein)
chain: MANYFIDRPVFAWVLAIIMMLAGGLAIMNLPVAQYPQIAPPTITVSATYPGADAQTVEDSVTQVIEQNMNGLDGLMYMSSTSDAAGNASITLTFETGTSPDIAQVQVQNKLQLAMPSLPEAVQQQGISVDKSSSNILMVAAFISDNGSLNQYDIADYVASNIKDPLSRTAGVGSVQLFGSEYAMRIWLDPQKLNKYNLVPSDVISQIKVQNNQISGGQLGGMPQAADQQLNASIIVQTRLQTPEEFGKILLKVQQDGSQVLLRDVARVELGAEDYSTVARYNGKPAAGIAIKLAAGANALDTSRAVKEELNRLSAYFPASLKTVYPYDTTPFIEISIQEVFKTLVEAIILVFLVMYLFLQNFRATIIPTIAVPVVILGTFAILSAVGFTINTLTMFGMVLAIGLLVDDAIVVVENVERVIAEDKLPPKEATHKSMGQIQRALVGIAVVLSAVFMPMAFMSGATGEIYRQFSITLISSMLLSVFVAMSLTPALCATILKAAPEGGHKPNALFARFNTLFEKSTQHYTDSTRSLLRCTGRYMVVYLLICAGMAVLFLRTPTSFLPEEDQGVFMTTAQLPSGATMVNTTKVLQQVTDYYLTKEKDNVQSVFTVGGFGFSGQGQNNGLAFISLKPWSERVGEENSVTAIIQRAMIALSSINKAVVFPFNLPAVAELGTASGFDMELLDNGNLGHEKLTQARNELLSLAAQSPNQVTGVRPNGLEDTPMFKVNVNAAKAEAMGVALSDINQTISTAFGSSYVNDFLNQGRVKKVYVQAGTPFRMLPDNINQWYVRNASGTMAPLSAYSSTEWTYGSPRLERYNGIPSMEILGEAAAGKSTGDAMKFMADLVAKLPAGVGYSWTGLSYQEALSSNQAPALYAISLVVVFLALAALYESWSIPFSVMLVVPLGVVGALLATDLRGLSNDVYFQVGLLTTIGLSAKNAILIVEFAVEMMQKEGKTPIEAIIEAARMRLRPILMTSLAFILGVLPLVISHGAGSGAQNAVGTGVMGGMFAATVLAIYFVPVFFVVVEHLFARFKKA
notes: MdtF, RND inner membrane transporter of the MdtEF system, Escherichia coli; gene PCR amplified from E. coli genomic DNA, cloned into pET21a(+) between NdeI and XhoI; wild type; the whole gene appears to have been cloned. ~110 kDa band on SDS-PAGE; source: E. coli BL21ΔacrB acrD mdtABC (NKE1317), purified (2% DDM extraction, Ni-NTA, SEC in 0.03% DDM)
stoichiometry N: 3
